Measured values taken from patent publication US20250011468A1.

Target: human plasma-derived FIXa (Haematologic Technologies Inc) (human) (UniProt P00740)
Test: cell-based or functional assay

Chain of human plasma-derived FIXa (Haematologic Technologies Inc) (human) (P00740 47-191, chain 1 of 2): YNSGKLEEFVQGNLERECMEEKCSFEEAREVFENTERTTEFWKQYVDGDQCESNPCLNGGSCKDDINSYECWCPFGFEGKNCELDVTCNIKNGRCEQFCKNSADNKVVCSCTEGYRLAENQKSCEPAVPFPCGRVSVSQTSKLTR
Chain of human plasma-derived FIXa (Haematologic Technologies Inc) (human) (P00740 227-461, chain 2 of 2): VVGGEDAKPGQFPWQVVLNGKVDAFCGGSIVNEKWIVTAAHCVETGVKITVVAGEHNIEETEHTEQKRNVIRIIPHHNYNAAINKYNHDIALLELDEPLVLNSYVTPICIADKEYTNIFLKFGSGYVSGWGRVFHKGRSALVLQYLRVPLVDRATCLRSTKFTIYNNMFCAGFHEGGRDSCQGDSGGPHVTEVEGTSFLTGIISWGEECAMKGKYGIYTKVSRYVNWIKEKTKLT

- Maximum stimulation (fold), at 15300 nM BiAb: 808 fold
Substance: ACE910 (bispecific antibody)
